Data reported in the domain aggregation screens of Martell et al. (2025).

Assay: soluble fraction after stress (log2 fold change); higher = more stays soluble; pooled small domains, quantitative proteomics
Details: stress: pH 4
Summary of the method: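 With high-throughput quantitative proteomics, pooled custom libraries of small protein domains were measured after pH 4 stress. Each domain's soluble amount after the stress gives a fold change taken as aggregation propensity. Higher log2 values mean more of the domain stayed soluble.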

| Sequence | soluble fraction (log2) |
| --- | --- |
| HMLMYAQDEKEEASNNIPYRLLHMSFTKEQKAELQRAMDVRVPKDIILSYFYPDTPVARMMEIRRQYESA | 0.12 |
| HMLNDKLQTLFSLFPAVDKDLKKKGVTRQILWEQYKRNHPDGVGRSQFNYYYAQWKDQVNPT | 0.22 |
| HMLNDMYAVMEIRGQGGELIAKLINQDGSPFYVKKGTTLQSGHVIDEITTTYVRAEKAGAKDYLYF | -1.65 |
| HMLNDTGAIRAAVEEVLAANEKSVNEYKGGKTQAFQYLIGQSMRALRGKAPAQEVTKLLKELLG | -0.0483 |
| HMLNQIGVSQKEFDQIHTAIKIALKTSSLTPTGITEKLPKFPPEKTADILRWMADNKEVLLNSEEKYELKT | 0.0247 |
| HMLPAGAAAPLEDGSAPEGYTVKGNADSGLYHEPDGRWYDATVAEFWFKTAADAEAAGFRKAGS | -0.741 |
| HMLPDGEAFVKVNTSLNIRTGPWGQIVGWFHNNDKVKIIGRDGDWYKISHNGQTRYIHSRYVSSSR | -0.0297 |
| HMLPDHAPITMRQLAMLHVAKNKLDLTDEDYRSLLLLYGGVESSKQLNQEGLRRVLDRFKELGFEP | -0.258 |
| HMLPDLLNGRVIPSPEKVIRARLNRGVWELLVQWVGRAPSDATWENLLEFKSAYPSVQLEDALF | -1.1 |
| HMLPDLQKAIDTFLYEVDSRINTSFEELIDKLNSKEEAVAFFLALLEAVRWGFIKAEQESNSINIKK | -1.49 |
| HMLPDSQLMKEATAWFMRQAADDFSGAERRRLDAWRAQSPAHARAYHQVQALWNAPELQQAAAR | -0.0106 |
| HMLPEGIENGDVLTRTDALDYRKWLVTGNQKRIFASTASFYGENFNYSEVKAVSDRVLDAIPDGEPV | -0.549 |
| HMLPFGHTRLEDGTIQEIPEQIALARKVAEMYKAGFPVMQISIKTEGLLTPRQIYGLMNHWGVKR | -0.412 |
| HMLPIKLDLEIGENVRVVSGPLENFVGSVVSFDTDQQKVKLVVEMFGRKTPVELDFIEVQKLR | -1.47 |
| HMLPIMDRLITAGISINTAKKWVDKFGDKRIKQNLAYSLAKQKEGKVKTNFVGYLAKAIEEDWGSGWE | ≥ 0.43 |
| HMLPKAERREQLMAVARSVFAEQGYHTTSMEIIAETAGVSKPLLYQHFPSKLDLYLALLDAGID | -1.1 |

| Sequence | soluble fraction (log2) |
| --- | --- |
| HMLPKILVMDGKVNKNALTTLGKDEEWVKKVLRNHNIHSIKDVLLALYDTKGKFQYQLYDDYEK | -0.019 |
| HMLPKNITNTIDHWIQKFPQGKQRSAIIAALHAVQHHNKGFLTNDLLNQVADYIDVPKMNVYEVATFYSM | 0.22 |
| HMLPLIEVPAVTGKYLTKAKSALKDAGLDTGDIKRVEHEEHGENYVLKQDPPAGTKVPFGTTVSLTVVAP | 0.15 |
| HMLPLLEYLDPFTGKKTYTYLNPDTQHPIFTYYSYQDDKTGRTAYSYIDPLTGKAVNSDEPPMDILYD | -1.34 |
| HMLPPHMEVRAIMILDKRPMALMNIEGEGDGLIVSPGYRFGDGRGRVVSITQTKVVVLWAGTSMEL | -0.383 |
| HMLPQYELIKQYLRHQIETGEWPIGYRTPSEPKLAEQFSVSRMTARRALQELADQGLLSRTAGSGTFVAKP | 0.0856 |
| HMLPVQGEEVAPGLYKFDFPFLADKRVWEKTINAFKAEHPELKVNYIYTGPDELNSKKKTHVLVYVFTES | -0.122 |
| HMLPVYSITEAAERLDIPASTIKWYADRFASYISPSKGKGRKRFTPEDLATLQKIHELSQDHTTEEAEAML | -1.16 |
| HMLPYKGTVAVSLAVLHKAVGVGTADMLKAVGTLRQGTEVTVTGRNGPFAQLKNGLWMKESFLE | 0.193 |
| HMLQADALADPVGWALRTLGFDLEAGTPERSAIQRSFRQSLIEAHPDHGGADDEAAQRIADITEARRILLA | -0.858 |
| HMLQFTYPRLHTKKSWYVDFMSFDPGAGKMRRKKFMLDGIPKITDRRKRAAELIEVLTKQLRAGWSPWVNV | 0.403 |
| HMLQIADEYLDRLQALFEDVRDNHFAIGDLLVELVDMHDSRRVDVINYIAGRLAISPTTLYDYENTARR | -0.966 |
| HMLQLDATDRALIVATQGGLPLVPRPYQVVGEQLGISGEEVVARLRALLDAGVIRRIGAVPN | 0.327 |
| HMLQLKEPLKKVYERLTPVPKTAETILAELWEKGEYLDIAALHRALMELELSGYVRQSSPGYFGTSA | 0.00945 |
| HMLQQKESAALGERLLNQALATLKVEPDAISWDRWEALAKEYGAKSQLDILADIGLGKRLSFVVAQALTKV | -0.698 |
